Measurements from paper doi:10.1101/2021.03.03.433707 (bioRxiv, 2021).
Blank lines part the entries; values can stand above or below the binder they belong to.

B3: MatPΔ18C (printed MatPA18C; 1-132) (domain or fragment, E. coli, UniProt P0A8N0 1-132, looked up)
chain: MKYQQLENLESGWKWKYLVKKHREGELITRYIEASAAQEAVDVLLSLENEPVLVNGWIDKHMNPELVNRMKQTIRARRKRHFNAEHQHTRKKSIDLEFIVWQRLAGLAQRRGKTLSETIVQLIEDAENKEKY

Assays:
[1] = biological target: B3; assay: native MS
[2] = biological target: the molecule itself; assay: native MS
[3] = biological target: T1, MukB, full length, wild type (E. coli, UniProt P22523 1-1486); assay: fluorescence correlation spectroscopy
T1 sequence (looked up): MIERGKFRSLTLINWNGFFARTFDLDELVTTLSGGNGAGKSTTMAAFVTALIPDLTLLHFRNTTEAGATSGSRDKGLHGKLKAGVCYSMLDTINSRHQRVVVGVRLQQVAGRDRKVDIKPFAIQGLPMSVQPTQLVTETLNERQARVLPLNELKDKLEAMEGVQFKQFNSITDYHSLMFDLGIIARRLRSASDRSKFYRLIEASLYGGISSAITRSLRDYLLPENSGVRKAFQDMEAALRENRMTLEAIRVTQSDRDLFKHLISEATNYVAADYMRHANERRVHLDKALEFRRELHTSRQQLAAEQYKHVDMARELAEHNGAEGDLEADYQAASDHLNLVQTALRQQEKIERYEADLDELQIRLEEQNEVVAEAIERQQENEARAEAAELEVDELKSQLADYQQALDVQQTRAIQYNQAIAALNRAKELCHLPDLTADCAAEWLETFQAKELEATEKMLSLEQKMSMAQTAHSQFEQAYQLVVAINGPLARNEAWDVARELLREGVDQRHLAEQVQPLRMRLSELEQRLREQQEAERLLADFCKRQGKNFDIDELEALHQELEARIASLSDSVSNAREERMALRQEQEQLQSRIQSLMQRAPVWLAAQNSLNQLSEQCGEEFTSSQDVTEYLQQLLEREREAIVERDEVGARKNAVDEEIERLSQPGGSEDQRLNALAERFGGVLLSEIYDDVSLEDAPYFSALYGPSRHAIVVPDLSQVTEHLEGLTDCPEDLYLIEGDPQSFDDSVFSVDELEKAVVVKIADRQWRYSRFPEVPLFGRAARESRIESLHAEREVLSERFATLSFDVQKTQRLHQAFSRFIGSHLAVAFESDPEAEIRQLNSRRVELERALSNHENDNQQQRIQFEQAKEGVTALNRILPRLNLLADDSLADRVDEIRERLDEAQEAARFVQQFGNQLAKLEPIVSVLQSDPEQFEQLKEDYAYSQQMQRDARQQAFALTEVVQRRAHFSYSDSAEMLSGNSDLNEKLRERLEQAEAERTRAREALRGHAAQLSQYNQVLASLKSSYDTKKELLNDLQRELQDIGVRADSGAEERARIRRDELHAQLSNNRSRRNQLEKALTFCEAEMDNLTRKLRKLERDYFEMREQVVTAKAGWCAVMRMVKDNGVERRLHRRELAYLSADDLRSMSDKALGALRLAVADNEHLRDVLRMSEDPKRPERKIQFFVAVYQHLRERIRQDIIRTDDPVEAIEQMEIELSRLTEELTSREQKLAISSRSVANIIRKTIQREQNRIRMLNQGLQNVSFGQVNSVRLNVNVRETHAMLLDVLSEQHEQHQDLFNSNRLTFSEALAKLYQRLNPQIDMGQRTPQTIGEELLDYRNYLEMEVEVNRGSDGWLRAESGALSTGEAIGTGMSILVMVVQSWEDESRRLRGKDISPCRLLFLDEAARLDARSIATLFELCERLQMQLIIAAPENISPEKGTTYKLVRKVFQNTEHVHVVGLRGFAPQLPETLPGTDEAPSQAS

[4] = biological target: T2, MukB long hinge (LH, 568-863) (E. coli, UniProt P22523 568-863); assay: ITC
T2 sequence (looked up): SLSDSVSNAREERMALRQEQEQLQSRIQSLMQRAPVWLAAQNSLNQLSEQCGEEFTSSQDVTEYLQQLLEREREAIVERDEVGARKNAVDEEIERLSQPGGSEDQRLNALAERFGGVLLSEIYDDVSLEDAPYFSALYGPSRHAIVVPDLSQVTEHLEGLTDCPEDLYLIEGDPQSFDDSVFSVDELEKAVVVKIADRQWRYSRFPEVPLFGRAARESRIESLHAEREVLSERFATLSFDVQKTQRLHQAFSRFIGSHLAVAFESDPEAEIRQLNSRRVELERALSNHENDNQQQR

[5] = biological target: T2, MukB long hinge (LH, 568-863); assay: native MS
[6] = biological target: T1, MukB, full length, wild type; assay: fluorescence correlation spectroscopy; remark: listed apart in the source
[7] = biological target: T3, MukB^KKK (full length MukB D697K D745K E753K) (E. coli, UniProt P22523 1-1486, D697K | D745K | E753K); assay: fluorescence correlation spectroscopy
T3 sequence (looked up): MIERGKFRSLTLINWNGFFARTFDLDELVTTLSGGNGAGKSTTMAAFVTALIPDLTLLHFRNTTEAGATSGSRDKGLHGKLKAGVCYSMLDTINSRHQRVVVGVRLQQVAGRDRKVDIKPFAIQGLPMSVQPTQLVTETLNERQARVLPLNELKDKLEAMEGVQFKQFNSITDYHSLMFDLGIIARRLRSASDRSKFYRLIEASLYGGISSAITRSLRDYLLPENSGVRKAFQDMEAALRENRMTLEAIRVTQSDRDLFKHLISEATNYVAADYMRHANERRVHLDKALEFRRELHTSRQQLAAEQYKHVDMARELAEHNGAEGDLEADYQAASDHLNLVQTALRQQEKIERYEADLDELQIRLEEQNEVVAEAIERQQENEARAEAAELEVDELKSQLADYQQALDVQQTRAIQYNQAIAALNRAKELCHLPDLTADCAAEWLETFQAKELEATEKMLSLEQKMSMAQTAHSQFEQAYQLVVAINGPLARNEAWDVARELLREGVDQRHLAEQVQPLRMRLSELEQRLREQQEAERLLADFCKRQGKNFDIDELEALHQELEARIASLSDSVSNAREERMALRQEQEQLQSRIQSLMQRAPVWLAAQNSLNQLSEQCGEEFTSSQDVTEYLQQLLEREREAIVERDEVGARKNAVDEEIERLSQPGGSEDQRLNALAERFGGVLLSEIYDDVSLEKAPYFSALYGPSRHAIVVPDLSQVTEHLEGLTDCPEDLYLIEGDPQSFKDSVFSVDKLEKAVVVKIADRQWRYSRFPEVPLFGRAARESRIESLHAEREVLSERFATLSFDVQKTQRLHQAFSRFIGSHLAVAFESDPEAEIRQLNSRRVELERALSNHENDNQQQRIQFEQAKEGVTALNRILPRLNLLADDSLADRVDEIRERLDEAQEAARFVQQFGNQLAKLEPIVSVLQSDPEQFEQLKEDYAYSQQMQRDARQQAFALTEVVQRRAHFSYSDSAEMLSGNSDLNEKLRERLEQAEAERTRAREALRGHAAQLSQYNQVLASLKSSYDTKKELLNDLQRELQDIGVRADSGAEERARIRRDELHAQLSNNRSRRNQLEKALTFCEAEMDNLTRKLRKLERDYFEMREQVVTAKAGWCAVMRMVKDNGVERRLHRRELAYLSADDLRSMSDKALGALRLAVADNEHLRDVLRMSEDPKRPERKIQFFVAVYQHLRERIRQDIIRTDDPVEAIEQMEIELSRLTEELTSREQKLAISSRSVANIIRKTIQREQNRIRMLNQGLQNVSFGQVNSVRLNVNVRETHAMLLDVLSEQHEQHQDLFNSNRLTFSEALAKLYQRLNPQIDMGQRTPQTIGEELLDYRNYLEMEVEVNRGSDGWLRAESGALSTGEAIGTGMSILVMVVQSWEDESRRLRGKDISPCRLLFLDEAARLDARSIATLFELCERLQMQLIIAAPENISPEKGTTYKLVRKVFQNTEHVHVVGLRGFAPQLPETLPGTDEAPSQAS

- binding result [1]: binds
B1: MukB short hinge (SH, 667-779) (domain or fragment, E. coli, UniProt P22523 667-779, looked up)
chain: GGSEDQRLNALAERFGGVLLSEIYDDVSLEDAPYFSALYGPSRHAIVVPDLSQVTEHLEGLTDCPEDLYLIEGDPQSFDDSVFSVDELEKAVVVKIADRQWRYSRFPEVPLFG
- stoichiometry N [2]: 2

- fold decrease in MatP-Cy3B binding to MukB at a 10-fold excess of competitor [3]: 3 fold
B2: ParC, full length (enzyme, E. coli, UniProt P0AFI2 1-752, looked up)
chain: MSDMAERLALHEFTENAYLNYSMYVIMDRALPFIGDGLKPVQRRIVYAMSELGLNASAKFKKSARTVGDVLGKYHPHGDSACYEAMVLMAQPFSYRYPLVDGQGNWGAPDDPKSFAAMRYTESRLSKYSELLLSELGQGTADWVPNFDGTLQEPKMLPARLPNILLNGTTGIAVGMATDIPPHNLREVAQAAIALIDQPKTTLDQLLDIVQGPDYPTEAEIITSRAEIRKIYENGRGSVRMRAVWKKEDGAVVISALPHQVSGARVLEQIAAQMRNKKLPMVDDLRDESDHENPTRLVIVPRSNRVDMDQVMNHLFATTDLEKSYRINLNMIGLDGRPAVKNLLEILSEWLVFRRDTVRRRLNYRLEKVLKRLHILEGLLVAFLNIDEVIEIIRNEDEPKPALMSRFGLTETQAEAILELKLRHLAKLEEMKIRGEQSELEKERDQLQGILASERKMNNLLKKELQADAQAYGDDRRSPLQEREEAKAMSEHDMLPSEPVTIVLSQMGWVRSAKGHDIDAPGLNYKAGDSFKAAVKGKSNQPVVFVDSTGRSYAIDPITLPSARGQGEPLTGKLTLPPGATVDHMLMESDDQKLLMASDAGYGFVCTFNDLVARNRAGKALITLPENAHVMPPVVIEDASDMLLAITQAGRMLMFPVSDLPQLSKGKGNKIINIPSAEAARGEDGLAQLYVLPPQSTLTIHVGKRKIKLRPEELQKVTGERGRRGTLMRGLQRIDRVEIDSPRRASSGDSEE

Binder: B3
- Kd [4]: 590 nM
- dH [4]: -16.8 kcal/mol
- stoichiometry N [4]: 0.96
- stoichiometry N [5]: 1 MatP dimer per LH dimer

- Kd [6]: ~250 nM
- Kd [7]: ~1600 nM
B4: MatP-Cys-His labelled with Cy3B (MatP-Cy3B) (domain or fragment, E. coli, UniProt P0A8N0 1-132, looked up)
chain: MKYQQLENLESGWKWKYLVKKHREGELITRYIEASAAQEAVDVLLSLENEPVLVNGWIDKHMNPELVNRMKQTIRARRKRHFNAEHQHTRKKSIDLEFIVWQRLAGLAQRRGKTLSETIVQLIEDAENKEKY
modifications: Cy3B maleimide on a single cysteine engineered into the linker between MatP and its 6xHis-tag
